Test results taken from paper PMC3025549.

Biological target: recombinant mjRNAP (RNA polymerase of M. jannaschii), wild type (M. jannaschii) (UniProt Q58445)
Experiment: native gel or EMSA

B1: mjTFIIB K87-A (natural protein)
chain: MVWLMEALKTKENETTKEKKLTTKVEKSEKKEENVREEEIVCPICGSKEVVKDYERAEIVCAKCGCVIKEKLFDIGPEWRAFDHEQAIKRCRVGAPMTYSVDYNEPIIIKENGEIKVVKIGELIDKIIENSENIRREGILEIAKCKGIEVIAFNSNYKFKFMPVSEVSRHPVSEMFEIVVEGNKKVRVTRSHSVFTIRDNEVVPIRVDELKVGDILVLAKELPNIEEDIEIDKKFSKILGYIIAEGYYDDKKIVLSYDYNEKEFINETIDYFKSLNSDITIYSKDLNIQIEVKNKKIINLLKKLRVKNKRIPSIIFKSPYEIKKSFIDGIFNGKDAKVFVSKELAEDVIFLLLQIKENATINKKSINDIEVYEVRRITNIYTNRKLEKLINSDFIFLKIKEINKVEPTSGYAYDLTVPNAENFVAGFGGFVLHNTIHDKGLSTVIDWRNKDSYGKDLSANKRAQLYRLRKWQRRIRVSDAAERNLAFALSELDRITSKLGLPRHVRENAAIIYRGAVEKGLIRGRSIEGVVAAAIYAACRRCRVPRTLDEIAEASRVDRKEIGRTYRFLARELNIKLTPTNPIDYVPRFASELGLPGEVESKAIQILQQAAEKGLTSGRGPTGVAAAAIYIASVLLGCRRTQREVAEVAGVTEVTIRNRYKELTEHLDIDVTL
  recruitment activity relative to wild type (% of wild type): 140
